Results from US20220204611A1.

Target: human TREM2 on cells (human) (UniProt Q9NZC2)
Test: cell-based or functional assay

Chain of human TREM2 on cells (human) (Q9NZC2 19-230): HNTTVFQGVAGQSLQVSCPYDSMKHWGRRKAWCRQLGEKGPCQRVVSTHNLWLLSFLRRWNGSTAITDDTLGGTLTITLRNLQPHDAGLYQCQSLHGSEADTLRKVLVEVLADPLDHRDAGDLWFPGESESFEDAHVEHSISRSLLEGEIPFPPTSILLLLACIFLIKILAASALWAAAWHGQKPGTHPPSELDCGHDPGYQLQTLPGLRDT

“rat anti-human/mouse TREM2 antibody mAb17291 (Rat IgG2b Clone #237920, R&D Systems)” showed an Emax (% maximum activation compared to RnD antibody) of 100%, a pSyk EC50, HEK293T human TREM2/DAP12 of 0.5 nM and a pSyk EC50, differentiated THP-1 cells of 0.383 nM. For the same substance, the pSyk Emax, HEK293T human TREM2/DAP12 was 13.8.
